Laboratory results published in PMC4619592.

Legend:
[1] = target: Truncated P-domain of GNNV capsid protein (residues 214-338) (orange-spotted grouper nervous necrosis virus (OSGNNV)); experiment: crystal structure; truncated P-domain (214-338), 1.2 Å; crystals from 0.2 M Ca acetate, 0.1 M MES (pH 6.5), 10% PEG8000
[2] = target: Truncated P-domain of GNNV capsid protein (residues 214-338) (orange-spotted grouper nervous necrosis virus (OSGNNV)); experiment: SEC; purified P-domain on Superdex 75 10/300 GL in the presence of Ca2+, against protein standards
[3] = target: N-ARM deletion mutant of GNNV capsid protein (residues 35-338) (orange-spotted grouper nervous necrosis virus (OSGNNV)); experiment: SDS-PAGE; oligomerization of three CPs in solution, bands compared to protein standards
[4] = target: delta-P-domain mutant of GNNV capsid protein (residues 35-217) (orange-spotted grouper nervous necrosis virus (OSGNNV)); experiment: as above
[5] = target: delta-P-domain mutant of GNNV capsid protein (residues 35-217) (orange-spotted grouper nervous necrosis virus (OSGNNV)); experiment: crystal structure; T = 1 delta-P-domain mutant (35-217), 3.1 Å; crystals from 0.2 M MgCl2, 0.1 M HEPES-Na (pH 7.5), 30% PEG400
[6] = target: Grouper nervous necrosis virus capsid protein, full length (338 residues) (orange-spotted grouper nervous necrosis virus (OSGNNV)); experiment: SDS-PAGE; oligomerization of three CPs in solution, bands compared to protein standards

Truncated P-domain of GNNV capsid protein (residues 214-338) (domain or fragment)
stoichiometry N [1]: 3
stoichiometry N [2]: 3

N-ARM deletion mutant of GNNV capsid protein (residues 35-338) (domain or fragment)
stoichiometry N [3]: 3

delta-P-domain mutant of GNNV capsid protein (residues 35-217) (domain or fragment)
stoichiometry N [4]: 2
stoichiometry N [5]: 60

Grouper nervous necrosis virus capsid protein, full length (338 residues) (natural protein)
stoichiometry N [6]: 3
